Patent US20170015748A1 (NATIONAL RESEARCH COUNCIL OF CANADA, published 2017)

Biological target: T1, recombinant extracellular portion of human IGF1R (IGF1R^933-His fragment) (human, UniProt P08069 31-933)
T1 construct: It holds a furin site (RKRR) between the alpha and beta subunits, so the protein may be cleaved into two disulphide-linked chains; also called h-IGF1R; recombinant human IGF1R; not shown: His tag from vector pCDN4/myc-His
Test: SPR (BIACORE 3000), human IGF1R immobilized on CM5, VHH injected, 1:1 model, 25 C
Procedure: Approximately 3000 Resonance Units (RU) of recombinant human IGF1R (R&D Systems) were immobilized on a Sensor chip CM5. Immobilization was carried out at a concentration of 10 μg/ml in 10 mM acetate at pH4.0 using the amine coupling kit supplied by the manufacturer. The remaining binding sites were blocked with 1M ethanolamine pH 8.5. An ethanolamine blocked surface was used as a reference surface. For the binding studies, analyses were carried out at 25° C. in 10 mM HEPES, pH7.4 containing 150 mM NaCl, 3 mM EDTA and 0.005% surfactant P20 (Polyoxyethylenesorbitan; GE Healthcare). […] Surfaces were regenerated with 10 mM glycine pH 2.0 with a contact time of 24 seconds. Data were analyzed with BIAevaluation 4.1 software (GE Healthcare).

T1 sequence (P08069 31-933): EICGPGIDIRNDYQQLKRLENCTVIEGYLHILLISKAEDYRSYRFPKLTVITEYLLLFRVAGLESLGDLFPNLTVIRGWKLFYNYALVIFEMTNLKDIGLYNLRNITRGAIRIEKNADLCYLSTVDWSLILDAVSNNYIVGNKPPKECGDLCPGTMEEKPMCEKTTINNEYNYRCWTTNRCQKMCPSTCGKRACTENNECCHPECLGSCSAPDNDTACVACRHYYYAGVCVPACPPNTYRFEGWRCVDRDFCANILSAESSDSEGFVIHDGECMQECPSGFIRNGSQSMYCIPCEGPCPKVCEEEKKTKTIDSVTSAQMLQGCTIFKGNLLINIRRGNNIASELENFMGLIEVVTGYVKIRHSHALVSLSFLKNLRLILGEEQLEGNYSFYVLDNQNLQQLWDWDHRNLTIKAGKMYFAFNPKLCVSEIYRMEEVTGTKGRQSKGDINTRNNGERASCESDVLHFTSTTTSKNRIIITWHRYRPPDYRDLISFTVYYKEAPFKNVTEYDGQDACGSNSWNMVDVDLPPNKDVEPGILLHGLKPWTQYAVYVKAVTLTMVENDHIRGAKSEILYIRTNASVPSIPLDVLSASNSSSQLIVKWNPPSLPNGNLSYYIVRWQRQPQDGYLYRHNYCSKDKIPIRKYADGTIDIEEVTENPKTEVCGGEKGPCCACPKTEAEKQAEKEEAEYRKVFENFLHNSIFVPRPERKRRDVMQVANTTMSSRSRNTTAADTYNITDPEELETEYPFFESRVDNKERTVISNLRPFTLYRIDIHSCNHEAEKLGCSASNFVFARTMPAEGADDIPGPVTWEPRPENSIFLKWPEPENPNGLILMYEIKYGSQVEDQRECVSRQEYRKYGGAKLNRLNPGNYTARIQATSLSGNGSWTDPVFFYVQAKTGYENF

Binder | Kd [nM] | koff [s⁻¹] | kon [M⁻¹ s⁻¹]
IGF1R-5_H3 (VHH, Humanized variant of IGF1R-5, expressed from pSJF2H in E. coli) VHH: QVQLVESGGGLVQPGGSLRLSCAASGRTIDNYAMAWSRQAPGKGLEFVATIDWGDGGTRYANSVKGRFTISRDNSKNTMYLQMNSLRAEDTAVYYCAMARQSRVNLDVARYDYWGQGTLVTVSS | 0.8 | 0.00041 | 520000
IGF1R-5_H2 (VHH, Humanized variant of IGF1R-5, expressed from pSJF2H in E. coli; also called IGF1R H2) VHH: QVQLVESGGGLVQPGGSLRLSCAASGRTIDNYAMAWVRQAPGKGLEWVATIDWGDGGTRYANSVKGRFTISRDNSKNTMYLQMNSLRAEDTAVYYCAMARQSRVNLDVARYDYWGQGTLVTVSS | 7.5 | 0.0029 | 380000
IGF1R-5_H1 (VHH, Humanized variant of IGF1R-5, expressed from pSJF2H in E. coli) VHH: EVQLVESGGGLVQPGGSLRLSCAASGRTIDNYAMAWVRQAPGKGLEWVSTIDWGDGGTRYANSVKGRFTISRDNSKNTLYLQMNSLRAEDTAVYYCAMARQSRVNLDVARYDYWGQGTLVTVSS | 11 | 0.0043 | 390000

Continued by falling Kd, values first:

Kd [nM] | koff [s⁻¹] | kon [M⁻¹ s⁻¹] | Binder
1.7 | 0.00072 | 430000 | IGF1R-5_H6 (VHH, Humanized variant of IGF1R-5, expressed from pSJF2H in E. coli) VHH: EVQLVESGGGLVQPGGSLRLSCAASGRTIDNYAMAWSRQAPGKDREFVSTIDWGDGGTRYANSVKGRFTISRDNSKNTLYLQMNSLRAEDTAVYYCAMARQSRVNLDVARYDYWGQGTLVTVSS
1.6 | 0.0008 | 500000 | IGF1R-5_H5 (VHH, Humanized variant of IGF1R-5, expressed from pSJF2H in E. coli) VHH: QVQLVESGGGLVQPGGSLRLSCAASGRTIDNYAMAWSRQAPGKDREFVATIDWGDGGTRYANSVKGRFTISRDNSKGTMYLQMNSLRAEDTAVYSCAMARQSRVNLDVARYDYWGQGTLVTVSS
0.6 | 0.00034 | 530000 | IGF1R-5 VHH (VHH, Llama VHH expressed in E. coli TG1 from vector pSJF2H and purified by IMAC; Monomeric by SEC; also called anti-IGF1R VHH IGF1R-5; wild-type IGF1R-5) VHH: QVKLEESGGGLVQAGGSLRLSCAASGRTIDNYAMAWSRQAPGKDREFVATIDWGDGGARYANSVKGRFTISRDNAKGTMYLQMNNLEPEDTAVYSCAMARQSRVNLDVARYDYWGQGTQVTVSS
